B1: 13-nt DNA primer/18-nt DNA template (dsDNA)
DNA 1: TAATGGTAGGGGAAGGAT
DNA 2: ATCCTTCCCCTAC
modifications: primer 3'-terminal dideoxycytosine
B2: 10-nt DNA primer/30-nt DNA template (dsDNA)
DNA 1: CTTAGGATGGAGAAAGGTAAGATGAAGCCG
DNA 2: CGGCTTCATC
B3: 10-nt RNA primer/30-nt DNA template (DNA:RNA)
DNA: B2 DNA 1
RNA: CGGCUUCAUC

Tests used:
[1] = molecular target: T1, DNA polymerase alpha catalytic core (p180, hPolα) (Homo sapiens, UniProt P09884 338-1259); assay: X-ray crystallography (3.3 Å); crystallized with Mg2+ and dCTP; neither bound in active site (binary complex); 50 mM Bis-Tris pH 6.5, 100 mM NaCl, 5 mM MgCl2, 23 °C; 2 nM labeled duplex, 0.1-16000 nM protein, >30 min; settings: protein: recombinant; tags: N-terminal His6-SUMO (His6-SMT) removed by SUMO protease; template 5' overhang 5 nt, one replicative end
[2] = molecular target: T1, DNA polymerase alpha catalytic core …; assay: fluorescence anisotropy; 5 mM MgCl2, no dNTP; 50 mM Bis-Tris pH 6.5, 100 mM NaCl, 5 mM MgCl2, 23 °C; 2 nM labeled duplex, 0.1-16000 nM protein, >30 min; settings: protein: recombinant; tags: N-terminal His6-SUMO (His6-SMT) removed by SUMO protease; label: 5' 6-FAM on template; template 5' overhang 20 nt, one replicative end

T1 sequence (P09884 338-1259): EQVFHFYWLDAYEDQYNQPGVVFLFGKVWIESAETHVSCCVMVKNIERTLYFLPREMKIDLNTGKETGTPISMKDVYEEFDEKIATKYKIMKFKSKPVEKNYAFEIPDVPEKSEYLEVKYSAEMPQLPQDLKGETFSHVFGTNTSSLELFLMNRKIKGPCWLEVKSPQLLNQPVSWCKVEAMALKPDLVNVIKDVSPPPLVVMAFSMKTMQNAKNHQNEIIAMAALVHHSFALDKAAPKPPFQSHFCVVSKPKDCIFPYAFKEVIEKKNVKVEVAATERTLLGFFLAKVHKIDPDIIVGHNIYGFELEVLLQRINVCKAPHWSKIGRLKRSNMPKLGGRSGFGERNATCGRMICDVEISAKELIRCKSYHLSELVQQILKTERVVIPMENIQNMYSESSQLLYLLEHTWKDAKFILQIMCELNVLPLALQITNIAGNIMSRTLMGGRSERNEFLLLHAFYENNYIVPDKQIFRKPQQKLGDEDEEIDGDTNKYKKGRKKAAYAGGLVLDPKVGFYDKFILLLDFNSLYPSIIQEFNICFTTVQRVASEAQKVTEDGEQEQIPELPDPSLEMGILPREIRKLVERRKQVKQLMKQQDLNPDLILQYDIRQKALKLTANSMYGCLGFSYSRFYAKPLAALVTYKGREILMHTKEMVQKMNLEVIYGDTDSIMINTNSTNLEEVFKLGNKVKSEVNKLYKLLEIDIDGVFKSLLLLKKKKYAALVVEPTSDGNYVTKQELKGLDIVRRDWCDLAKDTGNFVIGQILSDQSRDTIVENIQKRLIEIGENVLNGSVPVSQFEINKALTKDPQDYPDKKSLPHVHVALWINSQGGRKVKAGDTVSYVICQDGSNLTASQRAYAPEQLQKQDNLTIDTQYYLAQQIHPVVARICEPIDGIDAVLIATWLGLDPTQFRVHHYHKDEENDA

| Binder | binding result [1] | Kd [2] |
| --- | --- | --- |
| B1 | binds | – |
| B2 | – | ~430 nM |
| B3 | – | ~320 nM |
